Measurements from publication PMC2948018, “Identification of Thioaptamer Ligand against E-Selectin: Potential Application for Inflamed Vasculature Targeting”.

What was measured:
Assay in all cases: EMSA; 5 mM Mg2+, Ca2+; EMSA: PBS with Ca2+ and Mg2+, 5 mM MgCl2, 1% NP40, room temperature 45 min, 4.6 pmol ESTA-1 with 0-19 pmol selectin in 10.5 ul, 6% gel run at 4 C; cell binding: 20 min at 37 C; pH not stated
L-selectin = target: T1, L-selectin (UniProt P14151 39-332); conditions: protein: recombinant; label: none in EMSA (SYBR Gold stain); two hairpin loops (MFOLD)
T1 sequence: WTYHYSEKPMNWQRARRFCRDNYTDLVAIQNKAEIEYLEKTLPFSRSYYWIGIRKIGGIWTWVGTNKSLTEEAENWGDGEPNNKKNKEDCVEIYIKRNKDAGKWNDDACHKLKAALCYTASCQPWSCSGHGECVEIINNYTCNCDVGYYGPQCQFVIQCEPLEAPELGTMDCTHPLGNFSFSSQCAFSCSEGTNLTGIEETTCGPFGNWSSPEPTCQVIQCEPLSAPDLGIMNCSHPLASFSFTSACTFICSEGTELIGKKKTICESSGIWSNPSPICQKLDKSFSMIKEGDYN

[1] = target: T2, E-selectin extracellular domain (human, UniProt P16581 22-556); conditions: protein: commercial; label: none in EMSA (SYBR Gold stain); two hairpin loops (MFOLD)
T2 sequence: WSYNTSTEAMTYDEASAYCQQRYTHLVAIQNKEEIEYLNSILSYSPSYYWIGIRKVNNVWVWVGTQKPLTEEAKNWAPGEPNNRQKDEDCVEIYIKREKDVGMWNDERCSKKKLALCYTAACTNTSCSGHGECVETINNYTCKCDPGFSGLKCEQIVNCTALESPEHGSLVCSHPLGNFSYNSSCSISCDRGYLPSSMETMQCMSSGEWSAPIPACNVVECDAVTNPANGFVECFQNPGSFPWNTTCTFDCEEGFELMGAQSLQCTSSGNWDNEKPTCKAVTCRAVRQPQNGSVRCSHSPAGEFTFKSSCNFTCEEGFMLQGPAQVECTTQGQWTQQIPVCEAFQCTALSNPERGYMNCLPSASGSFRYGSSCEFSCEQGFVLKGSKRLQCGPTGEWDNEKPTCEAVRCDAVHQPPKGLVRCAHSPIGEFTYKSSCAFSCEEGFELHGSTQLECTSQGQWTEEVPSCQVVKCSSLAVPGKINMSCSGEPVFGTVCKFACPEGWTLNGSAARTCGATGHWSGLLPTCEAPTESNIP

P-selectin = P-selectin (UniProt P16109 42-771); conditions: protein: recombinant; label: none in EMSA (SYBR Gold stain); two hairpin loops (MFOLD)
Sequence of P-selectin (P16109 42-771): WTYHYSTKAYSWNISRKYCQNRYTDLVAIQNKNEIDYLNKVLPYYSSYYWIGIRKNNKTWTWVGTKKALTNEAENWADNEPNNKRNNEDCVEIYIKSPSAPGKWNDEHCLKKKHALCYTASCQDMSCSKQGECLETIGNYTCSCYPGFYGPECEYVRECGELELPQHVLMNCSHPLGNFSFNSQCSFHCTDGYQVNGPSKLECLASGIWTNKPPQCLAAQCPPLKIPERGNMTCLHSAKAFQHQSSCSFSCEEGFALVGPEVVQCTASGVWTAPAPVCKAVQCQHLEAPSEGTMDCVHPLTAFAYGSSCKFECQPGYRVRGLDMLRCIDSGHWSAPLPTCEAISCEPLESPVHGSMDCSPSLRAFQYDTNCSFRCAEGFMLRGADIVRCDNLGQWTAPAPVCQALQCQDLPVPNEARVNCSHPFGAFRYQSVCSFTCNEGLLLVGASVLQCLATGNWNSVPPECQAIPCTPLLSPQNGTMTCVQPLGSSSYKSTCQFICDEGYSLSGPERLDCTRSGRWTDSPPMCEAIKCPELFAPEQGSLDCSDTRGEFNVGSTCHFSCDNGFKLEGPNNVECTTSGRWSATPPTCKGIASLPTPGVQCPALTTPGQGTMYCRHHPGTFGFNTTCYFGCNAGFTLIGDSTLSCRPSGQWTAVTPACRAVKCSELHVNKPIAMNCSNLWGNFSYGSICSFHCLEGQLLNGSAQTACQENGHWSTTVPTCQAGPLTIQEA

B1: ESTA-1 (TA-1) (XNA)
DNA: CGCTCGGATCGATAAGCTTCGATCCCACTCTCCCGTTCACTTCTCCTCACGTCACGGATCCTCTAGAGCACTG
modifications: monothiophosphate (Rp) at all dA except 5' primer region
binding result (L-selectin): no binding
Kd [1]: 47 nM
Kd (P-selectin): ~13 µM
